Measured values: patent US20240317858A1 (Adimab, published 2024)

What was measured:
[1] = molecular target: T1, Human CD3εδ Fc heterodimer (Hu CD3ε Fc + CD3δ Fc-HIS) (human, UniProt P07766 22-126; P04234 22-100); test: SPR (Biacore), Fab over immobilized CD3εδ Fc, pH 7.4
T1 construct: range 22-126;range 22-100; Made in HEK 293 cells with a heterologous signal peptide; also called Hu CD3εδ-Fc; CD3εδ Fc-HIS heterodimer; not shown: Fc; Fc followed by HIS tag
Description: (§1) Anti-CD3 antibodies A001-A005, V002, V004, V007, V009, V010, V013, and V014-V019 were produced in CHO cells, and Fab fragments were generated from IgG1 antibodies by papain digestion and purification as described in Example 2. Monovalent binding affinity at pH 7.4 and pH 6.0 was measured via surface plasmon resonance (SPR). Briefly, human or cynomolgus CD3εδ Fe heterodimer produced as described in Example 2 was immobilized to a CM5 sensor chip in a Biacore® X100 (Cytiva, previously GE Healthcare Life Sciences) to a response level of ˜500 RUs. Fabs were then injected at 3-fold increasing concentrations, ranging from 0.74-180 nM. The sensor chip was doubly regenerated between cycles using 0.35 M EDTA and 0.1 M NaOH. The resulting data were double reference subtracted and fit to a 1:1 binding model using Biacore® Evaluation Software.

[2] = molecular target: T2, Cynomolgus CD3εδ Fc heterodimer (Cy CD3ε Fc + CD3δ Fc-HIS) (cynomolgus, UniProt Q95LI5 22-117; Q95LI8 22-100); test: as above
T2 construct: range 22-117;range 22-100; Made in HEK 293 cells with a heterologous signal peptide; also called Cy CD3εδ-Fc; cyno CD3εδ Fc; not shown: Fc; Fc followed by HIS tag
Description: as §1

[3] = molecular target: T1, Human CD3εδ Fc heterodimer (Hu CD3ε Fc …); test: BLI (Octet), Fab monovalent, pH 7.4
Description: (§2) ForteBio KD measurements (Biolayer interferometry; BLI). ForteBio affinity measurements were performed generally as previously described (Estep, P., et al., High throughput solution-based measurement of antibody-antigen affinity and epitope binning. MAbs, 2013. 5(2): p. 270-8.). Briefly, ForteBio affinity measurements were performed by loading IgGs or CD3εδ Fe-HIS heterodimer onto AHC sensors. Sensors were equilibrated off-line in assay buffer for 30 min and then monitored on-line for 60 seconds for baseline establishment. Sensors with loaded IgGs were exposed to 100 nM antigen (e.g., CD3) for 3 min, afterwards they were transferred to assay buffer for 10 min for off-rate measurement. Sensors loaded with CD3εδ Fe-HIS heterodimer were exposed to 100 nM anti-CD3 Fab for 3 min, afterwards they were transferred to assay buffer for 3 min or 10 min for off-rate measurement. Kinetics were analyzed using the 1:1 binding model. For measuring binding at different pHs, measurements were performed at pre-determined pHs (e.g., pH 7.4 and pH 6.0).
(§3) Anti-CD3 antibodies A001-A005, V002, V004, V007, V009, V010, V013, and V014-V019 were produced as IgG1s in CHO cells, and Fab fragments were generated from IgG1 antibodies by papain digestion and purification as described in Example 2. Human, cynomolgus, rhesus, and mouse CD3εδ Fc heterodimers were produced, and monovalent binding affinity and avidity at pH 7.4 and pH 6.0 were measured using the Octet® HTX instrument (ForteBio) as described in Example 2.

[4] = molecular target: T3, Rhesus CD3εδ Fc heterodimer (rhesus); test: BLI (Octet), Fab monovalent, pH 7.4
T3 construct: extracellular domain; also called Rh CD3εδ-Fc
Description: as §2, §3

[5] = molecular target: T2, Cynomolgus CD3εδ Fc heterodimer (Cy …); test: BLI (Octet), Fab monovalent, pH 7.4
Description: as §2, §3

[6] = molecular target: T1, Human CD3εδ Fc heterodimer (Hu CD3ε Fc …); test: SPR (Biacore), Fab over immobilized CD3εδ Fc, pH 6.0
Description: as §1

[7] = molecular target: T2, Cynomolgus CD3εδ Fc heterodimer (Cy …); test: as above
Description: as §1

[8] = molecular target: T1, Human CD3εδ Fc heterodimer (Hu CD3ε Fc …); test: BLI (Octet), Fab monovalent, pH 6.0
Description: as §2, §3

[9] = molecular target: T2, Cynomolgus CD3εδ Fc heterodimer (Cy …); test: BLI (Octet), Fab monovalent, pH 6.0
Description: as §2, §3

[10] = molecular target: T4, Cynomolgus CD3 on HSC-F cells (cynomolgus, UniProt Q95LI5 22-198); test: flow cytometry, 100 nM IgG1, pH 7.4
T4 construct: whole, on cells; Target is the endogenous CD3 complex on cells; also called Cyno CD3 HSC-F cells; Cyno CD3+ HSC-F cells
Description: (§4) Cell binding assays. CD3+ human Jurkat cells (ATCC) and CHO-S cells (Invitrogen/ThermoFisher) were thawed and washed with cold PBSF buffer, pH 7.4 (PBS+0.1% BSA, pH 7.4). About 200,000 cells were aliquoted per well of a 96-well plate (FACS Assay Plate VWR BD 353263) and pelleted by centrifugation (5 minutes at 500×g). The cells were washed with either PBSF pH 7.4 or PBSF pH 6.0 (PBS+0.1% BSA, pH 6.0), and then resuspended in 100 μl in either PBSF pH 7.4 or PBSF pH 6.0 with IgG1 antibody (100 nM) produced in yeast as described above or in CHO cells. The mixture (cells+antibody) was incubated for 20 minutes on ice, then washed twice with either PBSF pH 7.4 or PBSF pH 6.0. Cells were resuspended in 50 μl of propidium iodide (Roche; 1:500 dilution) and anti-human IgG-RPE (Southern Biotech; 1:100 dilution) prepared in either PBSF pH 7.4 or PBSF pH 6.0, then incubated for 20 minutes on ice in the dark before cells were washed twice with either PBSF pH 7.4 or PBSF pH 6.0. Binding was analyzed on FACS Canto II.
(§5) Anti-CD3 antibodies A001-A005, V002, V004, V007, V009, V010, V013, and V014-V019 were produced as IgG1s in CHO cells, and binding to human CD3+ Jurkat cells and cynomolgus CD3+ HSC-F cells at pH 7.4 was analyzed by flow cytometry as described in Example 2. NCB (Normalized Cell Binding) values were calculated based on control and sample MFI values as NCB={(Sample MFI)−(Secondary only MFI)}/(Secondary only MFI).

[11] = molecular target: T5, Human CD3 on CD3+ Jurkat cells (human, UniProt P07766 23-207); test: flow cytometry, 100 nM IgG1, pH 7.4
T5 construct: whole, on cells; Target is the endogenous CD3 complex on cells; also called Human CD3+ Jurkat cells
Description: as §4, §5

T2 sequence (Q95LI5 22-117, stated change not applied, form in doubt, chain 1 of 2): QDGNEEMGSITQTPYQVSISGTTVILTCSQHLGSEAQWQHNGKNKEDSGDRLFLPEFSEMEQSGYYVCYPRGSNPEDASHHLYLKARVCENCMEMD
T2 sequence (Q95LI8 22-100, stated change not applied, form in doubt, chain 2 of 2): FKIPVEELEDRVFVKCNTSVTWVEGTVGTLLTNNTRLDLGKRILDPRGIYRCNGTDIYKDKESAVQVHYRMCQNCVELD
T1 sequence (P07766 22-126, stated change not applied, form in doubt, chain 1 of 2): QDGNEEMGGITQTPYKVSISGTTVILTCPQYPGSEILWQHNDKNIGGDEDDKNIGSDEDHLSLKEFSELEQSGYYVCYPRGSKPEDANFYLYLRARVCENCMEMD
T1 sequence (P04234 22-100, stated change not applied, form in doubt, chain 2 of 2): as the sequence (Q95LI8 22-100, stated change not applied, form in doubt, chain 2 of 2) above, with V5I, K15N, V20I, T32S, N33D, N34I, A64T, N74S counted along it
T5 sequence (P07766 23-207): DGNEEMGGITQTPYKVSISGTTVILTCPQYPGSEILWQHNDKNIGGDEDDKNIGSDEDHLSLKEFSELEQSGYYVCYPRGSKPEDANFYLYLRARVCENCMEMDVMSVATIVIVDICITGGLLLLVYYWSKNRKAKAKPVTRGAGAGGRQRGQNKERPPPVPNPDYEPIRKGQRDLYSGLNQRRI
T4 sequence (Q95LI5 22-198): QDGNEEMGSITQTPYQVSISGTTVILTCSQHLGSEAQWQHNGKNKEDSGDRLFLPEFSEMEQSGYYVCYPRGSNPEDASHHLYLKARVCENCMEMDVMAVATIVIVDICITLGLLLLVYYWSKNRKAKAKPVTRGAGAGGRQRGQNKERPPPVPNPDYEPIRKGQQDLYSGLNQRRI

| Kd [1] | Kd [2] | Kd [3] | Kd [4] | Kd [5] | Kd [6] | Kd [7] | Kd [8] | Kd [9] | NCB (Normalized Cell Binding) [10] | NCB (Normalized Cell Binding) [11] | Binder |
| --- | --- | --- | --- | --- | --- | --- | --- | --- | --- | --- | --- |
| 9.9 nM | 9.3 nM | 35 nM | 33 nM | 28 nM | 11 nM | 11 nM | 29 nM | 32 nM |  |  | Antibody No. A003 (ADI-26913) Fab (Fab, V domains shown, Fab by papain digestion of the IgG1) VH: QVQLVQSGAEVKKPGASVKVSCKASGFNIKDYYMHWVRQAPGQRLEWMGWIDLENANTIYDAKFQGRVTITRDTSASTAYMELSSLRSEDTAVYYCARDQYGRYFYDVWGQGTLVTVSS VL: DIVMTQSPDSLAVSLGERATINCKSSQSLLNARTGKNYLAWYQQKPGQPPKLLIYWASTRESGVPDRFSGSGSGTDFTLTISSLQAEDVAVYYCKQSYSRRTFGGGTKVEIK |
| 11 nM | 11 nM | 44 nM | 39 nM | 39 nM | 12 nM | 12 nM | 24 nM | 21 nM |  |  | Antibody No. V014 (ADI-76357) Fab (Fab, V domains shown, Fab by papain digestion of the IgG1) VH: QVQLVQSGAEVKKPGASVKVSCKASGFDIKDYYMHWVRQAPGQRLEWMGWIDLENANTIYDAKFQGRVTITRDTSASTAYMELSSLRSEDTAVYYCARDQYGRYFYDVWGQGTLVTVSS VL: DIVMTQSPDSLAVSLGERATINCKSSQSLLNARTGKNYLAWYQQKPGQPPKLLIYWASTRESGVPDRFSGSGSGTDFTLTISSLQAEDVAVYYCKQSYSRRTFGGGTKVEIK |
|  |  |  |  |  |  |  |  |  | 373 | 328 | Antibody No. V019 (ADI-76362) IgG1 (antibody, V domains shown, IgG1, CHO-produced) VH: QVQLVQSGAEVKKPGASVKVSCKASGFNIKDYYMHWVRQAPGQRLEWMGWIDLEEGDTIYDAKFQGRVTITRDTSASTAYMELSSLRSEDTAVYYCARDAYGRYFYDVWGQGTLVTVSS VL: DIVMTQSPDSLAVSLGERATINCKSSQSLLNARTGKNYLAWYQQKPGQPPKLLIYWASTRESGVPDRFSGSGSGTDFTLTISSLQAEDVAVYYCKQSYSLRTFGGGTKVEIK |
| 19 nM | 16 nM | 420 nM |  | 96 nM | 25 nM | 26 nM | 58 nM | 34 nM |  |  | Antibody No. V017 (ADI-76360) Fab (Fab, V domains shown, Fab by papain digestion of the IgG1) VH: QVQLVQSGAEVKKPGASVKVSCKASGFNIKDYYMHWVRQAPGQRLEWMGWIDLENADTIYDAKFQGRVTITRDTSASTAYMELSSLRSEDTAVYYCGRDAYGRYFYDVWGQGTLVTVSS VL: DIVMTQSPDSLAVSLGERATINCKSSQSLLNARTGKNYLAWYQQKPGQPPKLLIYWASTRESGVPDRFSGSGSGTDFTLTISSLQAEDVAVYYCKQSYSLRTFGGGTKVEIK |
| 24 nM | 33 nM | 78 nM | 36 nM | 39 nM | 20 nM | 24 nM | 35 nM | 45 nM |  |  | Antibody No. A005 (ADI-26921) Fab (Fab, V domains shown, Fab by papain digestion of the IgG1) VH: QVQLVQSGAEVKKPGASVKVSCKASGFNIKDYYMHWVRQAPGQRLEWMGWIDLEEGNTIYDAKFQGRVTITRDTSASTAYMELSSLRSEDTAVYYCARDAYGRYFYDVWGQGTLVTVSS VL: DIVMTQSPDSLAVSLGERATINCKSSQSLLNARTGKNYLAWYQQKPGQPPKLLIYWASTRESGVPDRFSGSGSGTDFTLTISSLQAEDVAVYYCKQSYSLRTFGGGTKVEIK |
|  |  | 64 nM | 79 nM | 34 nM | 33 nM | 29 nM | 36 nM | 21 nM |  |  | Antibody No. V019 (ADI-76362) Fab (Fab, V domains shown, Fab by papain digestion of the IgG1) VH: QVQLVQSGAEVKKPGASVKVSCKASGFNIKDYYMHWVRQAPGQRLEWMGWIDLEEGDTIYDAKFQGRVTITRDTSASTAYMELSSLRSEDTAVYYCARDAYGRYFYDVWGQGTLVTVSS VL: DIVMTQSPDSLAVSLGERATINCKSSQSLLNARTGKNYLAWYQQKPGQPPKLLIYWASTRESGVPDRFSGSGSGTDFTLTISSLQAEDVAVYYCKQSYSLRTFGGGTKVEIK |
| 10 nM | 9 nM | 42 nM | 51 nM | 50 nM | 16 nM | 15 nM | 29 nM | 23 nM |  |  | Antibody No. A004 (ADI-26920) Fab (Fab, V domains shown, Fab by papain digestion of the IgG1) VH: QVQLVQSGAEVKKPGASVKVSCKASGFNIKDYYMHWVRQAPGQRLEWMGWIDLENANTIYDAKFQGRVTITRDTSASTAYMELSSLRSEDTAVYYCGRDAYGRYFYDVWGQGTLVTVSS VL: DIVMTQSPDSLAVSLGERATINCKSSQSLLNARTGKNYLAWYQQKPGQPPKLLIYWASTRESGVPDRFSGSGSGTDFTLTISSLQAEDVAVYYCKQSYSLRTFGGGTKVEIK |
| 18 nM | 19 nM | 56 nM | 53 nM | 58 nM | 14 nM | 11 nM | 34 nM | 29 nM |  |  | Antibody No. V015 (ADI-76358) Fab (Fab, V domains shown, Fab by papain digestion of the IgG1) VH: QVQLVQSGAEVKKPGASVKVSCKASGFNIKDYYMHWVRQAPGQRLEWMGWIDLENADTIYDAKFQGRVTITRDTSASTAYMELSSLRSEDTAVYYCARDQYGRYFYDVWGQGTLVTVSS VL: DIVMTQSPDSLAVSLGERATINCKSSQSLLNARTGKNYLAWYQQKPGQPPKLLIYWASTRESGVPDRFSGSGSGTDFTLTISSLQAEDVAVYYCKQSYSRRTFGGGTKVEIK |
